Results on two molecules are retold here after patent publication US9267129B2, “Compositions and methods for conferring herbicide resistance” (BEN-GURION UNIVERSITY OF THE NEGEV RESEARCH AND DEVELOPMENT …, priority 2011, dated 2016).

Where a chain is given by its changes, count along the chain named. Numbers in names are those of the source.

The nature of this data set: AHAS catalytic activity, pyruvate dependence. The class given is biochemical, Parietochloris incisa. The method, then: To overexpress the hexahistidine (6xHis)-tagged PiAHAS genes in E. coli strain JM109, plasmids pQE-WT and pQE-MUT were used. These plasmids were constructed by inserting the BamHI-SalI fragment containing the cloned PiAHAS wt and mutant genes into plasmid pQE30 (Qiagen, Hilden, Germany). These plasmids express PiAHAS fused at its N-terminus to the pQE30 6xHis leader. pQE-WT and pQE-MUT were transformed into E. coli for expression. The transformed cells were grown, IPTG induced, and harvested as described previously (Hill C et al. Purification of Escherichia coli acetohydroxyacid synthase isoenzyme II and reconstitution of active enzyme from its individual pure subunits. Biochem. J. 1997, 327, 891-898). Bacterial cells were disrupted by sonication in a binding buffer with 20 mM imidazol, 0.5 M sodium chloride, 50 mM sodium dihydrogen phosphate (pH 8.0), 20 μM FAD and 50 μl/g cells of protease inhibitor cocktail (Sigma-Aldrich, Israel). After 30 min of centrifugation at 20,000×g, the supernatant was loaded on a 1.5×8 cm column of Ni2+-nitrilotriacetatic acid-agarose (Qiagen) previously washed with the binding buffer. The column was then washed with 80 ml of the binding buffer, and the His-AHAS protein eluted with 0.4 M imidazol in the binding buffer. The fractions were dialyzed against 50 mM potassium phosphate buffer (pH 7.6), containing 20 μM FAD. The protein was concentrated for storage at −20 °C by dialysis against same buffer, containing 50% glycerol. The AHAS catalytic activity was determined as previously described (Bar-Ilan A et al. Binding and activation of thiamin diphosphate in acetohydroxyacid synthase. Biochemistry (N.Y.) 2001, 40, 11946-11954). The reactions were carried for 20 min at 37 °C in 0.1 M potassium phosphate buffer (pH 7.6), containing 10 mM magnesium chloride, 0.1 mM ThDP, 75 μM FAD, 5 mM EDTA, 1 mM DTT with 100 mM pyruvate as substrate, except where otherwise indicated. The activity is expressed in units (U) (1 U=1 μmol of acetolactate formed min^−1). Km for pyruvate and Ki for SMM were determined by varying the concentration of the factor in question. Protein concentration was determined by the dye-binding method of Bradford (Bradford MM. A rapid and sensitive method for the quantitation of microgram quantities of protein utilizing the principle of protein-dye binding. Anal. Biochem. 1976, 72, 248-254), with bovine serum albumin as standard. Km calculations were fit with the program “Sigma-Plot” to Michaelis-Menten equation. For Ki calculations, the lines were fit to equations: V=Vo×Ki/(Ki+[SMM]), for wild-type; V=Vf+(Vo−Vf)×Ki/(Ki+[SMM]), for mutant.
Enzymatic activity of the wild type and mutant forms of AHAS in the presence of different Pyruvate substrate concentrations was assayed with 6.9 μg/ml of PiAHAS wild-type protein and 11.5 μg/ml of mutant protein (FIG. 5) and the specific activity and Km were calculated.

B1: Wild-type: Parietochloris incisa acetohydroxyacid synthase (AHAS), SEQ ID NO: 1, expressed as N-terminal hexahistidine-tagged protein (protein, listed as Parietochloris incisa)
chain: MQGTMRPTAGALQQTVGCWHVPAGIPHAQQALRGRILPEELKQRCSATKPRAARQSAVTAAKLAEGKAGTPSRSLRQQPAAPQQQQQQQDSNELVALREAAKASLSSPAPAEWVDRFGSEPRKGADILVQCLEREGAFRVFAYPGGASMEIHQALTRSGIIRNILCRHEQGEIFAAEGYAKCTGDVGVCIATSGPGATNLVTGLADAMLDSVPLVAITGQVPRKMIGTDGFQETPIVEVTRQITKHNFLVMDLDDLPRIMKEAFYLARTGRPGPVLVDVPKDIQQQLAVPDWDTPMAISGYMSRLPAPPNPSQLAAVVRALKEAKRPTLYVGGGALDSSAELREFVRLTGIPVAQTLMGLGTFPEEDPLALQMLGMHGTVYANYAVNDSDLLLAFGVRFDDRVTGKLEAFASRACIVHIDIDPAEICKNKEAHIPICADLRASLIALNELLRRDPLPEGAFADWRAAIEAKKQEFPMTFPERDDVIIPQRAIQMLYEETNGEAIISTGVGQHQMWAAQWYQYNEPRRWVTSGGLGSMGFGLPSALGAAAVAYDGTDGRPKKVVVDIDGDGSFLMNCQELATAAVEGLETKIMILNNQHLGMVVQWEDRFYKANRAHTYLGHRANEYHTTLDESHIFPDFVMMAKSCGVPGRRVIKPEELRGAIREMLDTPGPFLLDVMVPHVEHVLPMIPGGGSFKDIITKGDGRDEY
modifications: N-terminal hexahistidine tag
For the molecule B1, under “37° C., pH 7.6”, the Km – broadly, the substrate concentration at which the rate is half of its maximum – was 49.4 ± 2.1 mM and the Specific activity worked out at 3.00 ± 0.05 U × mg^−1. In addition, the Specific activity (purified protein) was found to be 3 U/mg.

B2: Mutant: Parietochloris incisa AHAS with Trp605 substituted by Serine (W605S), SEQ ID NO: 2, hexahistidine-tagged (protein, listed as Parietochloris incisa)
chain: B1 chain with W605S
modifications: hexahistidine tag
Consider B2, for which, under “37° C., pH 7.6”, the Km is 71.7 ± 2.9 mM and the Specific activity came to 1.46 ± 0.03 U × mg^−1. Where the note is “mutant versus wild type”, the “decrease in affinity to the Pyruvate substrate compared to wild type” value came to 2 fold and the “decrease in specific / enzymatic activity compared to wild type” value was 2 fold.
